From PMC6926487

Target: GST-Rac1A, active (GTPγs-bound) (Dictyostelium) (UniProt P34144)
Experiment: pull-down; GST-Rac on glutathione magnetic agarose beads, loaded with GTPγs; Dictyostelium lysate (50 mM Tris HCl pH 8, 100 mM NaCl, 30 mM MgCl2, 0.1% Triton X-100, 1 mM DTT) added for 1 hour at 4°C; immunoblot anti-GFP

In the case of “GFP-WASP (Dictyostelium Wiskott-Aldrich syndrome protein, wild type) (natural protein)”, the immunoblot quantification of binding to active Rac1 (%) is reported as 1.9%.
